Data taken from patent US20230002480A1.

Tests used:
Test in all cases: cell-based or functional assay
[1] = target: HIV-1 Env of pseudovirus 231965.c01 (clade D) (HIV-1)
[2] = target: HIV-1 Env of pseudovirus 3817.v2.c59 (clade CD) (HIV-1)
[3] = target: HIV-1 Env of pseudovirus 6041.v3.c23 (clade AC) (HIV-1)
[4] = target: HIV-1 Env of pseudovirus 6540.v4.c1 (clade AC) (HIV-1)
[5] = target: HIV-1 Env of pseudovirus 6811.v7.c18 (clade CD) (HIV-1)
[6] = target: HIV-1 Env of pseudovirus Q23.17 (HIV-1)
[7] = target: HIV-1 Env of pseudovirus X2131_C1_B5 (clade G) (HIV-1)
[8] = target: HIV-1 Env of pseudovirus P1981_C5_3 (clade G) (HIV-1)
[9] = target: HIV-1 Env of pseudovirus 3103.v3.c10 (clade ACD) (HIV-1)
[10] = target: HIV-1 Env of pseudovirus 3016.v5.c45 (clade D) (HIV-1)
[11] = target: HIV-1 Env of pseudovirus 928-28 (HIV-1)
[12] = target: HIV-1 Env of pseudovirus 3301.v1.c24 (clade AC) (HIV-1)
[13] = target: HIV-1 Env of pseudovirus A07412M1.vrc12 (clade D) (HIV-1)
[14] = target: HIV-1 Env of pseudovirus 231966.c02 (clade D) (HIV-1)
[15] = target: HIV-1 Env of pseudovirus 6545.v4.c1 (clade AC) (HIV-1)
[16] = target: HIV-1 Env of pseudovirus ZM197M.PB7 (HIV-1)
[17] = target: HIV-1 Env of pseudovirus X1632_S2_B10 (clade G) (HIV-1)
[18] = target: HIV-1 Env of pseudovirus ZM247v1(Rev-) (HIV-1)
[19] = target: HIV-1 Env of pseudovirus 6480.v4.c25 (clade CD) (HIV-1)
[20] = target: HIV-1 Env of pseudovirus 89-F1_2_25 (clade CD) (HIV-1)
[21] = target: HIV-1 Env of pseudovirus 6952.v1.c20 (clade CD) (HIV-1)
[22] = target: HIV-1 Env of pseudovirus 263-8 (HIV-1)
[23] = target: HIV-1 Env of pseudovirus 3415.v1.c1 (HIV-1)
[24] = target: HIV-1 Env of pseudovirus 0815.v3.c3 (clade ACD) (HIV-1)

10-1074 (antibody)
IC50, titer in TZM.bl cells [1]: > 50 µg/mL
IC80, titer in TZM.bl cells [1]: > 50 µg/mL
IC50, titer in TZM.bl cells [2]: 3.15 µg/mL
IC80, titer in TZM.bl cells [2]: 14.9 µg/mL
IC50, titer in TZM.bl cells [3]: > 50 µg/mL
IC80, titer in TZM.bl cells [3]: > 50 µg/mL
IC50, titer in TZM.bl cells [4]: > 50 µg/mL
IC80, titer in TZM.bl cells [4]: > 50 µg/mL
IC50, titer in TZM.bl cells [5]: 0.002 µg/mL
IC80, titer in TZM.bl cells [5]: 0.01 µg/mL
IC50, titer in TZM.bl cells [6]: 0.006 µg/mL
IC80, titer in TZM.bl cells [6]: 0.021 µg/mL
IC50, titer in TZM.bl cells [7]: 0.016 µg/mL
IC80, titer in TZM.bl cells [7]: 0.064 µg/mL
IC50, titer in TZM.bl cells [8]: 0.005 µg/mL
IC80, titer in TZM.bl cells [8]: 0.017 µg/mL
IC50, titer in TZM.bl cells [9]: 0.037 µg/mL
IC80, titer in TZM.bl cells [9]: 0.101 µg/mL
IC50, titer in TZM.bl cells [10]: > 50 µg/mL
IC80, titer in TZM.bl cells [10]: > 50 µg/mL
IC50, titer in TZM.bl cells [11]: 0.847 µg/mL
IC80, titer in TZM.bl cells [11]: 4.7 µg/mL
IC50, titer in TZM.bl cells [12]: 0.013 µg/mL
IC80, titer in TZM.bl cells [12]: 0.042 µg/mL
IC50, titer in TZM.bl cells [13]: < 0.001 µg/mL
IC80, titer in TZM.bl cells [13]: 0.048 µg/mL
IC50, titer in TZM.bl cells [14]: > 50 µg/mL
IC80, titer in TZM.bl cells [14]: > 50 µg/mL
IC50, titer in TZM.bl cells [15]: > 50 µg/mL
IC80, titer in TZM.bl cells [15]: > 50 µg/mL
IC50, titer in TZM.bl cells [16]: > 50 µg/mL
IC80, titer in TZM.bl cells [16]: > 50 µg/mL
IC50, titer in TZM.bl cells [17]: > 50 µg/mL
IC80, titer in TZM.bl cells [17]: > 50 µg/mL
IC50, titer in TZM.bl cells [18]: 0.042 µg/mL
IC80, titer in TZM.bl cells [18]: 0.186 µg/mL
IC50, titer in TZM.bl cells [19]: 0.009 µg/mL
IC80, titer in TZM.bl cells [19]: 0.041 µg/mL
IC50, titer in TZM.bl cells [20]: > 50 µg/mL
IC80, titer in TZM.bl cells [20]: > 50 µg/mL
IC50, titer in TZM.bl cells [21]: 0.037 µg/mL
IC80, titer in TZM.bl cells [21]: 0.138 µg/mL
IC50, titer in TZM.bl cells [22]: 0.666 µg/mL
IC80, titer in TZM.bl cells [22]: 6.53 µg/mL
IC50, titer in TZM.bl cells [23]: > 50 µg/mL
IC80, titer in TZM.bl cells [23]: > 50 µg/mL
IC50, titer in TZM.bl cells [24]: 0.03 µg/mL
IC80, titer in TZM.bl cells [24]: 0.138 µg/mL

N49P7 (antibody)
IC50, neutralization titer in TZM.bl cells [1]: 0.054 µg/mL
IC80, neutralization titer in TZM.bl cells [1]: 0.193 µg/mL
MPI, neutralization in TZM.bl cells [1]: 100
IC50, neutralization titer in TZM.bl cells [2]: 0.716 µg/mL
IC80, neutralization titer in TZM.bl cells [2]: 3.73 µg/mL
MPI, neutralization in TZM.bl cells [2]: 99
IC50, neutralization titer in TZM.bl cells [3]: 0.047 µg/mL
IC80, neutralization titer in TZM.bl cells [3]: 0.222 µg/mL
MPI, neutralization in TZM.bl cells [3]: 100
IC50, neutralization titer in TZM.bl cells [4]: 11.7 µg/mL
IC80, neutralization titer in TZM.bl cells [4]: 33.2 µg/mL
MPI, neutralization in TZM.bl cells [4]: 92
IC50, neutralization titer in TZM.bl cells [5]: 0.229 µg/mL
IC80, neutralization titer in TZM.bl cells [5]: 0.992 µg/mL
MPI, neutralization in TZM.bl cells [5]: 100
neutralization IC50 [6]: 0.052 µg/mL
neutralization IC80 [6]: 0.21 µg/mL
neutralization MPI [6]: 100
IC50, neutralization titer in TZM.bl cells [7]: 0.081 µg/mL
IC80, neutralization titer in TZM.bl cells [7]: 0.273 µg/mL
MPI, neutralization in TZM.bl cells [7]: 100
IC50, neutralization titer in TZM.bl cells [8]: 0.113 µg/mL
IC80, neutralization titer in TZM.bl cells [8]: 0.274 µg/mL
MPI, neutralization in TZM.bl cells [8]: 100
IC50, neutralization titer in TZM.bl cells [9]: 0.158 µg/mL
IC80, neutralization titer in TZM.bl cells [9]: 0.509 µg/mL
MPI, neutralization in TZM.bl cells [9]: 100
IC50, neutralization titer in TZM.bl cells [10]: 0.221 µg/mL
IC80, neutralization titer in TZM.bl cells [10]: 1.04 µg/mL
MPI, neutralization in TZM.bl cells [10]: 100
neutralization IC50 [11]: 0.167 µg/mL
neutralization IC80 [11]: 0.579 µg/mL
neutralization MPI [11]: 100
IC50, neutralization titer in TZM.bl cells [12]: 0.025 µg/mL
IC80, neutralization titer in TZM.bl cells [12]: 0.069 µg/mL
MPI, neutralization in TZM.bl cells [12]: 100
IC50, neutralization titer in TZM.bl cells [13]: 0.108 µg/mL
IC80, neutralization titer in TZM.bl cells [13]: 0.645 µg/mL
MPI, neutralization in TZM.bl cells [13]: 100
IC50, neutralization titer in TZM.bl cells [14]: 0.102 µg/mL
IC80, neutralization titer in TZM.bl cells [14]: 0.43 µg/mL
MPI, neutralization in TZM.bl cells [14]: 100
IC50, neutralization titer in TZM.bl cells [15]: 2 µg/mL
IC80, neutralization titer in TZM.bl cells [15]: 14.7 µg/mL
MPI, neutralization in TZM.bl cells [15]: 96
neutralization IC50 [16]: 0.109 µg/mL
neutralization IC80 [16]: 0.347 µg/mL
neutralization MPI [16]: 100
IC50, neutralization titer in TZM.bl cells [17]: 12 µg/mL
IC80, neutralization titer in TZM.bl cells [17]: 40.4 µg/mL
MPI, neutralization in TZM.bl cells [17]: 85
neutralization IC50 [18]: 0.062 µg/mL
neutralization IC80 [18]: 0.214 µg/mL
neutralization MPI [18]: 100
IC50, neutralization titer in TZM.bl cells [19]: 0.031 µg/mL
IC80, neutralization titer in TZM.bl cells [19]: 0.113 µg/mL
MPI, neutralization in TZM.bl cells [19]: 100
IC50, neutralization titer in TZM.bl cells [20]: 21.6 µg/mL
IC80, neutralization titer in TZM.bl cells [20]: > 50 µg/mL
MPI, neutralization in TZM.bl cells [20]: 80
IC50, neutralization titer in TZM.bl cells [21]: 18.4 µg/mL
IC80, neutralization titer in TZM.bl cells [21]: 38.9 µg/mL
MPI, neutralization in TZM.bl cells [21]: 91
neutralization IC50 [22]: 0.056 µg/mL
neutralization IC80 [22]: 0.201 µg/mL
neutralization MPI [22]: 100
neutralization IC50 [23]: 0.16 µg/mL
neutralization IC80 [23]: 0.55 µg/mL
neutralization MPI [23]: 100
IC50, neutralization titer in TZM.bl cells [24]: 0.016 µg/mL
IC80, neutralization titer in TZM.bl cells [24]: 0.053 µg/mL
MPI, neutralization in TZM.bl cells [24]: 100

PG16 (antibody)
IC50, titer in TZM.bl cells [1]: 1.44 µg/mL
IC80, titer in TZM.bl cells [1]: > 50 µg/mL
IC50, titer in TZM.bl cells [2]: 0.008 µg/mL
IC80, titer in TZM.bl cells [2]: 0.06 µg/mL
IC50, titer in TZM.bl cells [3]: 0.048 µg/mL
IC80, titer in TZM.bl cells [3]: 0.256 µg/mL
IC50, titer in TZM.bl cells [4]: 0.035 µg/mL
IC80, titer in TZM.bl cells [4]: 0.42 µg/mL
IC50, titer in TZM.bl cells [5]: > 50 µg/mL
IC80, titer in TZM.bl cells [5]: > 50 µg/mL
IC50, titer in TZM.bl cells [6]: 0.008 µg/mL
IC80, titer in TZM.bl cells [6]: 0.043 µg/mL
IC50, titer in TZM.bl cells [7]: 0.024 µg/mL
IC80, titer in TZM.bl cells [7]: 0.139 µg/mL
IC50, titer in TZM.bl cells [8]: 0.376 µg/mL
IC80, titer in TZM.bl cells [8]: > 50 µg/mL
IC50, titer in TZM.bl cells [9]: 25.4 µg/mL
IC80, titer in TZM.bl cells [9]: > 50 µg/mL
IC50, titer in TZM.bl cells [10]: > 50 µg/mL
IC80, titer in TZM.bl cells [10]: > 50 µg/mL
IC50, titer in TZM.bl cells [11]: 0.034 µg/mL
IC80, titer in TZM.bl cells [11]: 0.237 µg/mL
IC50, titer in TZM.bl cells [12]: 0.02 µg/mL
IC80, titer in TZM.bl cells [12]: 0.087 µg/mL
IC50, titer in TZM.bl cells [13]: 0.343 µg/mL
IC80, titer in TZM.bl cells [13]: > 50 µg/mL
IC50, titer in TZM.bl cells [14]: 0.007 µg/mL
IC80, titer in TZM.bl cells [14]: 0.031 µg/mL
IC50, titer in TZM.bl cells [15]: 0.044 µg/mL
IC80, titer in TZM.bl cells [15]: 1.56 µg/mL
IC50, titer in TZM.bl cells [16]: 1.5 µg/mL
IC80, titer in TZM.bl cells [16]: 22.8 µg/mL
IC50, titer in TZM.bl cells [17]: 0.012 µg/mL
IC80, titer in TZM.bl cells [17]: 0.076 µg/mL
IC50, titer in TZM.bl cells [18]: 0.016 µg/mL
IC80, titer in TZM.bl cells [18]: 0.189 µg/mL
IC50, titer in TZM.bl cells [19]: > 50 µg/mL
IC80, titer in TZM.bl cells [19]: > 50 µg/mL
IC50, titer in TZM.bl cells [20]: 47.6 µg/mL
IC80, titer in TZM.bl cells [20]: > 50 µg/mL
IC50, titer in TZM.bl cells [21]: 21.9 µg/mL
IC80, titer in TZM.bl cells [21]: > 50 µg/mL
IC50, titer in TZM.bl cells [22]: 0.347 µg/mL
IC80, titer in TZM.bl cells [22]: 4.97 µg/mL
IC50, titer in TZM.bl cells [24]: > 50 µg/mL
IC80, titer in TZM.bl cells [24]: > 50 µg/mL
